# Results as given in publication PMC10515491, “Intrinsically Disordered Flanking Regions Increase the Affinity of a Transcriptional Coactivator Interaction across Vertebrates” (Biochemistry, 2023).
# T1: D. rerio NCBD (nuclear coactivator binding domain of CBP), Trp variant (D. rerio)
# T1 chain: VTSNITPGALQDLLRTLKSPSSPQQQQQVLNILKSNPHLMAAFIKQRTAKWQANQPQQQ
# T2: H. sapiens NCOA1 N-CID-C (H_sapiens_NCOA1_N-CID-C_885-1004) (H. sapiens, UniProt Q15788 885-1004)
# T2 construct: Gly-Ser remains at the N-terminus after thrombin cleavage; also called CID with flanking regions; Src1; not shown: His6, N-terminal, cleaved; lipo domain, N-terminal, cleaved
# T2 sequence: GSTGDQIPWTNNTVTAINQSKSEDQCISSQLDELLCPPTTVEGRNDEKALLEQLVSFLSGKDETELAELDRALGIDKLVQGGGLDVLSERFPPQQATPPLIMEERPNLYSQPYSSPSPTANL
# T3: S. purpuratus NCOA N-CID-C (CID with N- and C-terminal flanking regions) (S. purpuratus, UniProt A0A7M7N2F3 1037-1156)
# T3 construct: Gly-Ser remains at the N-terminus after thrombin cleavage; the Uniprot entry W4YZZ7 was withdrawn; annotated in NCBI as neurogenic protein mastermind; also called long version; source: expression construct ordered from Genscript; not shown: 6 His-tagged lipo domain, N-terminal, cleaved
# T3 sequence: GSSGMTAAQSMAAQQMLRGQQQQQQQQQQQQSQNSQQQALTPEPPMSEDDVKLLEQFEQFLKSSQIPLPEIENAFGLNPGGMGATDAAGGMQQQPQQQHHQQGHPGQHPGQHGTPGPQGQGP
# T4: C. milii NCBD (nuclear coactivator binding domain of CBP), Trp variant, first four residues truncated (C. milii)
# T4 chain: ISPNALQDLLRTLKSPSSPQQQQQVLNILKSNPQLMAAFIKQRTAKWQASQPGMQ
# B1: D. rerio NCOA1 N-CID-C (CID with N- and C-terminal flanking regions) (domain or fragment)
# chain: GSEPMTFDNSLANQTQAPLSSPQEQCVPCPLDEMLCPPTTPEGRNDEKALLEQLVTFLSHTDESELAELDRALGIDKIVQSGCLEPVTQTPFPQSQPPTPVPLDPKLPSYPSQFPTSPSQFP
# B2: H. sapiens NCOA1 N-CID-C (CID with N- and C-terminal flanking regions) (domain or fragment)
# chain: T2 sequence
# notes: Gly-Ser remains at the N-terminus after thrombin cleavage; also called NCOA1 (Src1); source: expression construct ordered from Genscript; not shown: 6 His-tagged lipo domain, N-terminal, cleaved
# B3: D. rerio NCOA2 N-CID-C (CID with N- and C-terminal flanking regions) (domain or fragment)
# chain: GPGSPPNQTAPWPDSVMPIEPVPFGNQSSSMYGGSQEDVLCPPASEGPADEGALLSQLYSALKDFDGLEEIDRALGIPALVGQAQPVEQDQFPGQDPSMMMDQKPPMYGQQQYASSPANMQQAG
# B4: H. sapiens CBP NCBD domain, Trp variant (H_sapiens_NCBD 2058-2116, Tyr2108 to Trp) (domain or fragment)
# chain: GSPPRSISPSALQDLLRTLKSPSSPQQQQQVLNILKSNPQLMAAFIKQRTAKWVANQPGMQ
# notes: Gly-Ser remains at the N-terminus after thrombin cleavage; Trp introduced at Tyr2108 for the kinetic studies; not shown: His6, N-terminal, cleaved; lipo domain, N-terminal, cleaved
# B5: S. purpuratus NCBD (nuclear coactivator binding domain of CBP), wild type (domain or fragment)
# chain: GSQRNNAPQQALQQLLQTLKSPHSPQQQKQVLTILKSNPQLMAAFIKQRSEHQQRMQQQQQ
# notes: Gly-Ser remains at the N-terminus after thrombin cleavage; CBP, S. purpuratus (purple sea urchin), NCBD domain, residues 2316-2374 of Uniprot A0A7M7HNR9; the Trp variant is told only for the stopped-flow experiments; source: expression construct ordered from Genscript; not shown: 6 His-tagged lipo domain, N-terminal, cleaved
# B6: D. rerio NCOA3 N-CID-C (CID with N- and C-terminal flanking regions) (domain or fragment)
# chain: GSPPQSPSWPDSGMGMEGPPSANRLPINSPLDELLAPPSTSEGQSDERALLDQLDSLLNNTDVIALEEIDRALGIPDLINQGHSSDQPPPSDPFSGPCLGPDSSMGMEPPKAMYGQGYPGPP
# B7: C. milii NCOA3 CID (minimal region) (domain or fragment)
# chain: EAQSDEKALLDQLDTLLSNADEMGLEEIDRALGIPDLISQVQ
# B8: D. rerio NCOA3 CID (minimal region) (domain or fragment)
# chain: GSEGQSDERALLDQLDSLLNNTDVIALEEIDRALGIPDLINQGH
# B9: H. sapiens NCOA1 CID (H_sapiens_NCOA1_CID_924-965) (domain or fragment)
# chain: GSEGRNDEKALLEQLVSFLSGKDETELAELDRALGIDKLVQGGG
# notes: Gly-Ser remains at the N-terminus after thrombin cleavage; also called Src1; not shown: His6, N-terminal, cleaved; lipo domain, N-terminal, cleaved
# B10: D. rerio NCOA1 CID (minimal region) (domain or fragment)
# chain: GSEGRNDEKALLEQLVTFLSHTDESELAELDRALGIDKIVQSGC
# B11: C. milii NCOA3 N-CID-C (CID with N- and C-terminal flanking regions) (domain or fragment)
# chain: QTTSWSDNVLQMEQVHSGGQGRQPFGGSLDDLLCPPTTAEAQSDEKALLDQLDTLLSNADEMGLEEIDRALGIPDLISQVQPLEAHADQFSVQDTALMLEQKAMYGQQFNSQAGPMQGCY
# B12: D. rerio NCOA2 CID (minimal region) (domain or fragment)
# chain: GPGSASEGPADEGALLSQLYSALKDFDGLEEIDRALGIPALVGQAQ
# Columns and labels:
# [1] = target: C. milii CBP NCBD domain, Trp variant (C_milli_NCBD 2031-2089) (Callorhinchus milii); test: stopped-flow spectroscopy; Trp variant of NCBD of the same species mixed with CID or N-CID-C; kon from the slope of kobs against CID concentration; koff from displacement of the complex by an excess of wild-type NCBD (average of three experiments); Kd = koff/kon; 20 mM sodium phosphate pH 7.40, 150 mM NaCl, 4 °C; double exponential fit for human and C. milii NCOA3, the high kobs used for Kd
# [2] = target: S. purpuratus NCBD (nuclear coactivator binding domain of CBP), wild type (S. purpuratus); test: ITC; MicroCal iTC200, 25 °C, 20 mM sodium phosphate pH 7.40, 150 mM NaCl
# [3] = target: D. rerio CBP NCBD domain, Trp variant (D_rerio_NCBD 2064-2122) (Danio rerio); test: stopped-flow spectroscopy; Trp variant of NCBD of the same species mixed with CID or N-CID-C; kon from the slope of kobs against CID concentration; koff from displacement of the complex by an excess of wild-type NCBD (average of three experiments); Kd = koff/kon; 20 mM sodium phosphate pH 7.40, 150 mM NaCl, 4 °C; double exponential fit for human and C. milii NCOA3, the high kobs used for Kd
# [4] = target: T1, D. rerio NCBD (nuclear coactivator …)
# [5] = target: H. sapiens NCBD (nuclear coactivator binding domain of CBP), Trp variant (H. sapiens, UniProt Q92793 2058-2116, a Trp was introduced at the position corresponding to Tyr2108 in human NCBD)
# [6] = target: T5, H. sapiens NCBD (nuclear coactivator binding domain of CBP), Trp variant (H. sapiens, UniProt Q92793 2058-2116, a Trp was introduced at the position corresponding to Tyr2108 in human NCBD); test: stopped-flow spectroscopy; Trp variant of NCBD mixed with CID at varied concentration; kon from the slope of kobs, koff from displacement with excess wild-type NCBD, Kd = koff/kon; 20 mM sodium phosphate pH 7.40, 150 mM NaCl, 4 °C; conditions: both partners purified
# T5 construct: Gly-Ser remains at the N-terminus after thrombin cleavage; also called human NCBD; Trp variant of NCBD; source: expression construct ordered from Genscript; not shown: 6 His-tagged lipo domain, N-terminal, cleaved
# [7] = target: T2, H. sapiens NCOA1 N-CID-C …; test: stopped-flow spectroscopy; Trp variant of NCBD of the same species mixed with CID or N-CID-C; kon from the slope of kobs against CID concentration; koff from displacement of the complex by an excess of wild-type NCBD (average of three experiments); Kd = koff/kon; 20 mM sodium phosphate pH 7.40, 150 mM NaCl, 4 °C; double exponential fit for human and C. milii NCOA3, the high kobs used for Kd; conditions: both partners purified
# [8] = target: T3, S. purpuratus NCOA N-CID-C (CID with N- …); test: ITC; MicroCal iTC200, 25 °C, 20 mM sodium phosphate pH 7.40, 150 mM NaCl; conditions: both partners purified
# [9] = target: T4, C. milii NCBD (nuclear coactivator …)
# [10] = target: B4; test: stopped-flow spectroscopy; Trp variant of NCBD of the same species mixed with CID or N-CID-C; kon from the slope of kobs against CID concentration; koff from displacement of the complex by an excess of wild-type NCBD (average of three experiments); Kd = koff/kon; 20 mM sodium phosphate pH 7.40, 150 mM NaCl, 4 °C; double exponential fit for human and C. milii NCOA3, the high kobs used for Kd; conditions: both partners purified
Molecule,Kd [3] [µM],koff [3] [s⁻¹],Kd [4] [µM],also measured
C. milii NCOA3 CID (C_milli_NCOA3_CID_1076-1117) (domain or fragment),–,–,–,Kd [1]: 0.26 µM; koff [1]: 6.53 s⁻¹
C. milii NCOA3 N-CID-C (C_milli_NCOA3_N-CID-C_1037-1156) (domain or fragment),–,–,–,Kd [1]: 0.088 µM; koff [1]: 3.78 s⁻¹
S. purpuratus NCOA CID (minimal region) (domain or fragment),–,–,–,Kd [2]: 5 µM
B1,0.0147,0.716,0.015,–
B2,–,–,–,Kd [5]: 0.006 µM; fold increase in affinity with flanking regions against the CID without them [6]: 9 fold
B3,0.0819,3.51,0.082,–
B4,–,–,–,Kd [7]: 0.00602 µM; koff [7]: 0.436 ± 0.0476 s⁻¹
B5,–,–,–,Kd [8]: 8 µM
B6,0.168,5.34,0.17,–
B7,–,–,–,Kd [9]: 0.26 µM
B8,0.3,7.29,0.3,–
B9,–,–,–,Kd [10]: 0.0557 µM; koff [10]: 1.59 ± 0.153 s⁻¹; Kd [5]: 0.056 µM
B10,0.0441,1.54,0.044,–
B11,–,–,–,Kd [9]: 0.088 µM
B12,0.146,5.06,0.15,–
